Data on 10 molecules can be found in article PMC10556141, “Yeast Rad52 is a homodecamer and possesses BRCA2-like bipartite Rad51 binding modes”.

The target of series [1] is T1, Rad52 (Saccharomyces cerevisiae, UniProt P06778 1-471). In words: FRET; steady-state wrapping; Anisotropy/FRET: 50 mM Tris-acetate pH 7.5, 50 mM KCl, 5 mM MgCl2, 10% glycerol, 1 mM DTT, 0.2 mg/mL BSA, 23 C; stopped flow: 50 mM Tris-acetate pH 7.5, 5 mM Mg. The following applies: protein: recombinant; chain copies: 10; label: 5'-Cy5, 3'-Cy3; single strand.
In series [2] the target is T2, Rad52ΔC (Saccharomyces cerevisiae, UniProt P06778 1-217). The description is as above. The following applies: protein: recombinant; chain copies: 10; label: 5'-Cy5, 3'-Cy3; single strand.
Series [3] deals with T3, Rad51 (Saccharomyces cerevisiae, UniProt P25454 1-400). The series is described as follows: FRET; outcompetes prebound Rad52 or Rad52ΔC at steady state; Anisotropy/FRET: 50 mM Tris-acetate pH 7.5, 50 mM KCl, 5 mM MgCl2, 10% glycerol, 1 mM DTT, 0.2 mg/mL BSA, 23 C; stopped flow: 50 mM Tris-acetate pH 7.5, 5 mM Mg. The following applies: protein: recombinant; label: 5'-Cy5, 3'-Cy3; single strand.

The target of series [4] is T1, Rad52. The series is described as follows: FRET; 45 nt sufficient to capture FRET; Anisotropy/FRET: 50 mM Tris-acetate pH 7.5, 50 mM KCl, 5 mM MgCl2, 10% glycerol, 1 mM DTT, 0.2 mg/mL BSA, 23 C; stopped flow: 50 mM Tris-acetate pH 7.5, 5 mM Mg. The following applies: protein: recombinant; chain copies: 10; label: 5'-Cy5, 3'-Cy3; single strand.
The target in series [5] is T1, Rad52. In words: AUC sedimentation velocity; 1:1 decamer:DNA; Anisotropy/FRET: 50 mM Tris-acetate pH 7.5, 50 mM KCl, 5 mM MgCl2, 10% glycerol, 1 mM DTT, 0.2 mg/mL BSA, 23 C; stopped flow: 50 mM Tris-acetate pH 7.5, 5 mM Mg. The following applies: protein: recombinant; chain copies: 10; single strand.
Series [6] has as its target T2, Rad52ΔC. In words: AUC sedimentation velocity; Anisotropy/FRET: 50 mM Tris-acetate pH 7.5, 50 mM KCl, 5 mM MgCl2, 10% glycerol, 1 mM DTT, 0.2 mg/mL BSA, 23 C; stopped flow: 50 mM Tris-acetate pH 7.5, 5 mM Mg. The following applies: protein: recombinant; chain copies: 10; single strand.
Series [7] concerns the target T1, Rad52. The series is described as follows: tryptophan quenching; high affinity site, two-site sequential model; Anisotropy/FRET: 50 mM Tris-acetate pH 7.5, 50 mM KCl, 5 mM MgCl2, 10% glycerol, 1 mM DTT, 0.2 mg/mL BSA, 23 C; stopped flow: 50 mM Tris-acetate pH 7.5, 5 mM Mg. The following applies: protein: recombinant; chain copies: 10; single strand.
Series [8] deals with T1, Rad52. The series is described as follows: tryptophan quenching; lower affinity site, two-site sequential model; Anisotropy/FRET: 50 mM Tris-acetate pH 7.5, 50 mM KCl, 5 mM MgCl2, 10% glycerol, 1 mM DTT, 0.2 mg/mL BSA, 23 C; stopped flow: 50 mM Tris-acetate pH 7.5, 5 mM Mg. The following applies: protein: recombinant; chain copies: 10; single strand.
Series [9] deals with T1, Rad52. The series is described as follows: tryptophan quenching; profile similar to (dT)84; Anisotropy/FRET: 50 mM Tris-acetate pH 7.5, 50 mM KCl, 5 mM MgCl2, 10% glycerol, 1 mM DTT, 0.2 mg/mL BSA, 23 C; stopped flow: 50 mM Tris-acetate pH 7.5, 5 mM Mg. The following applies: protein: recombinant; chain copies: 10; single strand.
The target of series [10] is T1, Rad52. The series is described as follows: fluorescence anisotropy; stoichiometric, too tight to fit; Anisotropy/FRET: 50 mM Tris-acetate pH 7.5, 50 mM KCl, 5 mM MgCl2, 10% glycerol, 1 mM DTT, 0.2 mg/mL BSA, 23 C; stopped flow: 50 mM Tris-acetate pH 7.5, 5 mM Mg. The following applies: protein: recombinant; chain copies: 10; label: 5'-FAM; single strand. A general note: In fluorescence polarisation assays a small probe gives low polarisation when free and higher when bound to something large.

Series [11] concerns the target T2, Rad52ΔC. The series is described as above. The following applies: protein: recombinant; chain copies: 10; label: 5'-FAM; single strand.
The target of series [12] is T1, Rad52. The series is described as follows: fluorescence anisotropy; preformed complex, reversible; Anisotropy/FRET: 50 mM Tris-acetate pH 7.5, 50 mM KCl, 5 mM MgCl2, 10% glycerol, 1 mM DTT, 0.2 mg/mL BSA, 23 C; stopped flow: 50 mM Tris-acetate pH 7.5, 5 mM Mg. The following applies: protein: recombinant; chain copies: 10; label: 5'-FAM; single strand.
The target of series [13] is T1, Rad52. In words: competition; competes with FAM-(dT)70; Anisotropy/FRET: 50 mM Tris-acetate pH 7.5, 50 mM KCl, 5 mM MgCl2, 10% glycerol, 1 mM DTT, 0.2 mg/mL BSA, 23 C; stopped flow: 50 mM Tris-acetate pH 7.5, 5 mM Mg. The following applies: protein: recombinant; chain copies: 10; single strand.
Series [14] addresses T1, Rad52. The series is described as follows: stopped-flow FRET; Anisotropy/FRET: 50 mM Tris-acetate pH 7.5, 50 mM KCl, 5 mM MgCl2, 10% glycerol, 1 mM DTT, 0.2 mg/mL BSA, 23 C; stopped flow: 50 mM Tris-acetate pH 7.5, 5 mM Mg. The following applies: protein: recombinant; chain copies: 10; label: 5'-Cy5, 3'-Cy3; single strand.
Series [15] concerns the target T2, Rad52ΔC. The description is as above. The following applies: protein: recombinant; chain copies: 10; label: 5'-Cy5, 3'-Cy3; single strand.
In series [16] the target is T3, Rad51. In words: stopped-flow FRET; ATP; filament on Rad52-prebound DNA; Anisotropy/FRET: 50 mM Tris-acetate pH 7.5, 50 mM KCl, 5 mM MgCl2, 10% glycerol, 1 mM DTT, 0.2 mg/mL BSA, 23 C; stopped flow: 50 mM Tris-acetate pH 7.5, 5 mM Mg. The following applies: protein: recombinant; label: 5'-Cy5, 3'-Cy3; single strand.

B1: Cy5-(dT)80-Cy3 (ssDNA)
DNA: TTTTTTTTTTTTTTTTTTTTTTTTTTTTTTTTTTTTTTTTTTTTTTTTTTTTTTTTTTTTTTTTTTTTTTTTTTTTTTTT
For B1, the binding result with Rad52 [1], in the series with Rad52ΔC [2] and with Rad51 [3] was “binds” throughout.

Take TTTTTTTTTTTTTTTTTTTTTTTTTTTTTTTTTTTTTTTTTTTTT (ssDNA) [Cy5-(dT)45-Cy3]: the binding result with Rad52 [4] is given as “binds”. TTTTTTTTTTTTTTTTTTTTTTTTTTTTTTTTTTTTTTTTTTTTT (ssDNA) [(dT)45]: the binding result with Rad52 [5] and with Rad52ΔC [6] was “binds” throughout.

B2: (dT)84 (ssDNA)
DNA: TTTTTTTTTTTTTTTTTTTTTTTTTTTTTTTTTTTTTTTTTTTTTTTTTTTTTTTTTTTTTTTTTTTTTTTTTTTTTTTTTTTT
On to B2, for which the Kd (in general, the concentration at which binding is half-saturated) is 0.0013 nM in the series with Rad52 [7] and 28 nM with Rad52 [8].

B3: (dT)54 (ssDNA)
DNA: TTTTTTTTTTTTTTTTTTTTTTTTTTTTTTTTTTTTTTTTTTTTTTTTTTTTTT
Take B3: the binding result in the series with Rad52 [9] is given as “binds”. As to TTTTTTTTTTTTTTTTTTTTTTTTTTTTTTTTTTT (ssDNA) [FAM-(dT)35], the binding result in the series with Rad52 [10] and in the series with Rad52ΔC [11] was “binds” in each case.

B4: FAM-(dT)70 (ssDNA)
DNA: TTTTTTTTTTTTTTTTTTTTTTTTTTTTTTTTTTTTTTTTTTTTTTTTTTTTTTTTTTTTTTTTTTTTTT
B4: in the series with Rad52 [12], the binding result is reported as “binds”.

B5: (dT)70 unlabeled (ssDNA)
DNA: TTTTTTTTTTTTTTTTTTTTTTTTTTTTTTTTTTTTTTTTTTTTTTTTTTTTTTTTTTTTTTTTTTTTTT
Regarding B5, the binding result with Rad52 [13] is “binds”.

B6: Cy5-(dT)97-Cy3 (ssDNA)
DNA: TTTTTTTTTTTTTTTTTTTTTTTTTTTTTTTTTTTTTTTTTTTTTTTTTTTTTTTTTTTTTTTTTTTTTTTTTTTTTTTTTTTTTTTTTTTTTTTTT
Turning to B6, the binding result with Rad52 [14], with Rad52ΔC [15] and in the series with Rad51 [16] was “binds” throughout.

B7: (dT)97 (ssDNA)
DNA: TTTTTTTTTTTTTTTTTTTTTTTTTTTTTTTTTTTTTTTTTTTTTTTTTTTTTTTTTTTTTTTTTTTTTTTTTTTTTTTTTTTTTTTTTTTTTTTTT
For the molecule B7, the binding result with Rad52 [5] and with Rad52ΔC [6] was “binds” each time.
